According to the Human Domainome abundance scans (Beltran et al. 2025):
± gives the uncertainty stated by the source.

B1: Unconventional myosin-Ie, residues 1051 to 1108; numbered along this chain, Q12965 (parent)
chain: PQVPQCKALYAYDAQDTDELSFNANDIIDIIKEDPSGWWTGRLRGKQGLFPNNYVTKI

Variants of: B1
Experiment: abundance fitness (aPCA) (normalised: wild type 0, dead -1); higher = more abundant; growth selection in yeast, the domain comes from the species named
Conditions: Homo sapiens

Abundance fitness: each site, then its substitutions
Q2: Y -0.373 ± 0.22, L -0.106 ± 0.07, S -0.223 ± 0.084, M 0.153 ± 0.061, V -0.173 ± 0.066, E -0.193 ± 0.079, T -0.155 ± 0.11, K -0.09 ± 0.069
L20: I -0.05 ± 0.087, P -1.11 ± 0.11, E -0.807 ± 0.13, K -0.836 ± 0.13, G -1.03 ± 0.11
D26: H -0.94 ± 0.42, C -0.957 ± 0.28, M -0.86 ± 0.12, K -1.07 ± 0.3, G -0.986 ± 0.094, F -0.726 ± 0.27, N -0.676 ± 0.2, P -0.981 ± 0.42, Q -0.263 ± 0.11
Q5: K -0.075 ± 0.088, R 0.023 ± 0.039, I -0.072 ± 0.18, N -0.062 ± 0.31, P -0.739 ± 0.051, Y -0.007 ± 0.13, C -0.269 ± 0.095
G37: I -0.52 ± 0.24, M -0.545 ± 0.12, W -0.677 ± 0.13, L -0.617 ± 0.095, Q -0.448 ± 0.099, T -0.375 ± 0.09, E -0.481 ± 0.049
N53: V -0.176 ± 0.063, D 0.016 ± 0.052, M 0.075 ± 0.072, Q -0.07 ± 0.088
D18: F -0.238 ± 0.12, E 0.052 ± 0.054, H -0.279 ± 0.086, M -0.091 ± 0.045, T -0.1 ± 0.074, V -0.257 ± 0.044
Q15: M -0.059 ± 0.064, E -0.23 ± 0.087, T -0.054 ± 0.061, V -0.193 ± 0.038, F -0.291 ± 0.21, H -0.28 ± 0.13, W -0.408 ± 0.037, K -0.186 ± 0.11
A11: D 0.102 ± 0.096, L -0.308 ± 0.056, G -0.186 ± 0.055, M -0.149 ± 0.037
I31: E -0.26 ± 0.055, Y -0.25 ± 0.091, Q -0.48 ± 0.08, T -0.2 ± 0.032, N -0.891 ± 0.45, S -0.58 ± 0.05
K7: G -0.943 ± 0.091, M -0.092 ± 0.053, R -0.114 ± 0.04, A -0.137 ± 0.053, H -0.122 ± 0.041, D -1.02 ± 0.1
K32: H 0.047 ± 0.077, Q -0.139 ± 0.078, L -0.122 ± 0.038, N -0.009 ± 0.073, M -0.1 ± 0.074, F -0.373 ± 0.3, W -0.205 ± 0.069, R -0.042 ± 0.037
L49: R 0.09 ± 0.05, H -0.317 ± 0.12, G -0.16 ± 0.046
Y12: G -0.937 ± 0.072, Q -0.887 ± 0.081, E -0.396 ± 0.12, C -0.968 ± 0.086, V -0.891 ± 0.047, M -0.761 ± 0.15
R44: A -0.074 ± 0.051, L -0.164 ± 0.049, C -0.139 ± 0.077, S -0.08 ± 0.055, K -0.181 ± 0.096, G -0.137 ± 0.06
F22: D -0.748 ± 0.45, K -0.754 ± 0.18, G -0.954 ± 0.095, R -0.953 ± 0.11, E -0.858 ± 0.21, N -0.816 ± 0.28
Q47: A -0.222 ± 0.074, G -0.451 ± 0.042, H -0.149 ± 0.06, M -0.169 ± 0.11, F -0.167 ± 0.095, V 0.041 ± 0.065
S21: G -0.358 ± 0.059, N -0.175 ± 0.093, D -0.217 ± 0.036, W -0.559 ± 0.13, T -0.058 ± 0.042, C -0.219 ± 0.032, Y -0.756 ± 0.28, L -0.939 ± 0.11
E33: M -0.02 ± 0.086, F -0.376 ± 0.17, A -0.236 ± 0.042, S -0.398 ± 0.045, Q 0.074 ± 0.087, V -0.26 ± 0.045
Y54: I -0.296 ± 0.12, L -0.04 ± 0.056, H 0.038 ± 0.07, V -0.145 ± 0.047, P -0.814 ± 0.23, E -0.97 ± 0.23
D16: F -0.19 ± 0.057, I -0.557 ± 0.16, K -0.069 ± 0.07, L -0.271 ± 0.046, V -0.169 ± 0.056, Q -0.22 ± 0.07, E -0.097 ± 0.053, H -0.206 ± 0.12, C -0.057 ± 0.055
D29: W -0.312 ± 0.068, Y -0.285 ± 0.096
A14: H -0.741 ± 0.26, D -0.797 ± 0.19, F -0.782 ± 0.32, L -0.98 ± 0.13, G -0.173 ± 0.037, K -0.195 ± 0.053, Q -0.345 ± 0.08, V -0.871 ± 0.1, W -1.13 ± 0.31, C -0.284 ± 0.059
N25: H -0.19 ± 0.082, T -0.215 ± 0.065, S -0.088 ± 0.038, M -0.151 ± 0.051, D -0.048 ± 0.068, Y -0.541 ± 0.11
W38: L -0.211 ± 0.3
N23: L -0.065 ± 0.028, D -0.047 ± 0.036, I -0.081 ± 0.03, Q -0.002 ± 0.04, K -0.008 ± 0.045
W39: M -0.35 ± 0.13, F -0.114 ± 0.13, L -0.512 ± 0.08, P -0.559 ± 0.049, K -0.677 ± 0.32
L9: G -0.624 ± 0.049, K -0.187 ± 0.041, F -0.743 ± 0.36, P -0.822 ± 0.17, N -0.232 ± 0.063, S -0.3 ± 0.059, H -0.367 ± 0.073
I30: W -0.967 ± 0.14, T -0.745 ± 0.16, M -0.465 ± 0.097, H -0.765 ± 0.21, F -0.736 ± 0.33
I27: P -0.681 ± 0.24, N -0.233 ± 0.093, M -0.156 ± 0.065, H -0.306 ± 0.069, A -0.47 ± 0.057, C -0.261 ± 0.059, T -0.26 ± 0.074, E -0.432 ± 0.058, G -0.927 ± 0.062, W -0.466 ± 0.048, Q -0.327 ± 0.077, R -0.374 ± 0.049
K46: W -0.569 ± 0.17, L -0.152 ± 0.066, T -0.146 ± 0.084, H -0.172 ± 0.11, G -0.411 ± 0.074, M 0.054 ± 0.08
N52: V -0.068 ± 0.047, I -0.123 ± 0.093, L -0.027 ± 0.048, S 0.024 ± 0.048, D -0.195 ± 0.08, G 0.02 ± 0.032, R -0.114 ± 0.06, W -0.053 ± 0.041, M -0.231 ± 0.055
A24: S -0.108 ± 0.053, M -0.034 ± 0.074, D -0.477 ± 0.15, H -0.06 ± 0.12
T40: H -0.284 ± 0.16, F -0.479 ± 0.18, N -0.382 ± 0.11, I -0.059 ± 0.054, M 0.052 ± 0.066, V 0.125 ± 0.075, E -0.203 ± 0.092
P35: F -0.329 ± 0.12, I -0.144 ± 0.081, Q -0.018 ± 0.049, H -0.623 ± 0.24, S -0.022 ± 0.039, L -0.29 ± 0.065, V -0.085 ± 0.051, K -0.027 ± 0.049, W -0.231 ± 0.05
F50: M -0.31 ± 0.04, V -0.208 ± 0.049, C -0.94 ± 0.42, R -0.968 ± 0.12, L -0.19 ± 0.058
R42: P -0.897 ± 0.15, H -0.15 ± 0.1, W -0.06 ± 0.059, Y -0.366 ± 0.16, G -0.125 ± 0.058
D34: N 0.014 ± 0.078, Y -0.27 ± 0.069, I -0.939 ± 0.32, P -0.15 ± 0.043, S -0.126 ± 0.044, L -0.3 ± 0.053, A -0.031 ± 0.051, E 0.06 ± 0.06, T -0.123 ± 0.036
T56: P -0.534 ± 0.081, R -0.097 ± 0.046, C -0.074 ± 0.078, F -0.023 ± 0.062, H 0.044 ± 0.12, D -0.034 ± 0.039, M 0.023 ± 0.058, I -0.261 ± 0.13
G41: S -0.998 ± 0.12, F -0.756 ± 0.37, Q -0.767 ± 0.23, V -0.9 ± 0.15, A -0.8 ± 0.045
T17: P -0.273 ± 0.092, D -0.007 ± 0.078, F -0.287 ± 0.097, S -0.077 ± 0.05, R -0.111 ± 0.049, Y -0.238 ± 0.088, N -0.423 ± 0.14, Q -0.078 ± 0.055, H -0.137 ± 0.19
Y10: L -0.16 ± 0.049, M -0.158 ± 0.039, K -0.043 ± 0.058, G -0.309 ± 0.033, R 0.056 ± 0.036, A -0.186 ± 0.045
C6: I -0.67 ± 0.46, P -0.96 ± 0.31, T -0.768 ± 0.14, R -0.818 ± 0.051
S36: M -0.284 ± 0.19, Q -0.024 ± 0.063, G -0.031 ± 0.047, D -0.033 ± 0.039
G48: Q -0.826 ± 0.16
I58: G -0.456 ± 0.24, H -0.333 ± 0.2, D -0.089 ± 0.25, R -0.32 ± 0.058
A8: P -0.732 ± 0.27, T -0.544 ± 0.12
E19: P -0.925 ± 0.063, C -0.123 ± 0.074, T -0.132 ± 0.066, S -0.159 ± 0.054, W -0.359 ± 0.039, R -0.189 ± 0.038, Q -0.125 ± 0.079, G -0.018 ± 0.04, Y 0.191 ± 0.074, K -0.136 ± 0.073
D13: M -0.16 ± 0.05, Y -0.209 ± 0.039, H -0.16 ± 0.057, P -0.399 ± 0.083, I -0.082 ± 0.082, R -0.165 ± 0.04, Q -0.018 ± 0.067, N -0.084 ± 0.094, G -0.304 ± 0.056
P51: R -0.026 ± 0.036, G -0.771 ± 0.066, W -0.143 ± 0.04, E -0.674 ± 0.072, V -0.94 ± 0.12
V55: I -0.27 ± 0.15, E -0.945 ± 0.13, Q -1.02 ± 0.12, D -0.777 ± 0.23, N -0.632 ± 0.44
P1: E -0.144 ± 0.16, L 0.072 ± 0.069, W -0.237 ± 0.11, V 0.027 ± 0.053
L43: C -0.267 ± 0.11, G -0.762 ± 0.07, R -0.417 ± 0.041, N -0.331 ± 0.069, Q -0.621 ± 0.079, F 0.014 ± 0.07
K57: Q -0.315 ± 0.048, L -0.442 ± 0.098, D -0.295 ± 0.1, S -0.323 ± 0.083, P -0.218 ± 0.12, M -0.34 ± 0.088, V -0.257 ± 0.06, N -0.143 ± 0.11
G45: W -0.702 ± 0.17, N 0.06 ± 0.08, I -0.639 ± 0.21
